Measured values as given in patent US20230357395A1.

Molecular target: NKp30 (species and construct not stated) (UniProt O14931)
Assay: ELISA
Settings: ligand

Sequence of NKp30 (species and construct not stated) (O14931 19-135): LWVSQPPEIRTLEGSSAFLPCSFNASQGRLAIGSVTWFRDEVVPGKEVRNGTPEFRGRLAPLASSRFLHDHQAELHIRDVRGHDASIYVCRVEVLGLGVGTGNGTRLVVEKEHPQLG
Sequence of B7-H6 (Q68D85 25-262): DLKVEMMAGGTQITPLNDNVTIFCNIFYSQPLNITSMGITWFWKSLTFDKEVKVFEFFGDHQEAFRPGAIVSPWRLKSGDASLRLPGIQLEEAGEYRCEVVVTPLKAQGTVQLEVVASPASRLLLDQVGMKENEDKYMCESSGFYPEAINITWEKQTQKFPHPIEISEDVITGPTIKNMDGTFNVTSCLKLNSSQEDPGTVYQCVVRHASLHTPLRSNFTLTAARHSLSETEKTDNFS

Kd: 6.56 nM
Substance: B7-H6 (from UniProt Q68D85 25-262)
